Source: the supplement of paper PMC10567573

B1: ZNF649 (parent)
chain: MTKAQESLTLEDVAVDFTWEEWQF
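Also: lentivirally expressed fusions sorted by FACS into six bins by GFP to DsRed ratio, PSI derived from sequencing read proportions per bin multiplied by bin number.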

Variants of: B1
Assay: protein stability index of a GFP-peptide fusion (GPS, HEK-293T) (PSI 1-6); higher = more stable
Settings: c terminus: a fixed tail appended
For MTKAQEKLTLEDVAVDFTWEEWQF [S7K], the protein stability index was 3.01. MTKAQEYLTLEDVAVDFTWEEWQF [S7Y] showed a protein stability index of 2.54. MTKAQEELTLEDVAVDFTWEEWQF [S7E] gave a protein stability index of 3.93. Variant MTKAQEPLTLEDVAVDFTWEEWQF [S7P] has a protein stability index of 3.14. With MTKAQEILTLEDVAVDFTWEEWQF [S7I] the protein stability index was 3.1. Work on MTKAQEALTLEDVAVDFTWEEWQF [S7A] yielded a protein stability index of 2.82. Variant MTKAQEDLTLEDVAVDFTWEEWQF [S7D] has a protein stability index of 3.75. In the case of MTKAQEMLTLEDVAVDFTWEEWQF [S7M], the protein stability index is reported as 2.69. MTKAQECLTLEDVAVDFTWEEWQF [S7C] gave a protein stability index of 2.9. Work on MTKAQEWLTLEDVAVDFTWEEWQF [S7W] yielded a protein stability index of 1.72. For MTKAQENLTLEDVAVDFTWEEWQF [S7N], the protein stability index was 3.39. MTKAQEGLTLEDVAVDFTWEEWQF [S7G] showed a protein stability index of 3.8. With MTKAQERLTLEDVAVDFTWEEWQF [S7R] the protein stability index was 3.55. With MTKAQELLTLEDVAVDFTWEEWQF [S7L] the protein stability index was 2.43. With MTKAQEVLTLEDVAVDFTWEEWQF [S7V] the protein stability index was 2.5. In the case of MTKAQEFLTLEDVAVDFTWEEWQF [S7F], the protein stability index is reported as 3.2. For MTKAQEQLTLEDVAVDFTWEEWQF [S7Q], the protein stability index was 3.68. In the case of MTKAQETLTLEDVAVDFTWEEWQF [S7T], the protein stability index is reported as 3.67. Work on MTKAQEHLTLEDVAVDFTWEEWQF [S7H] yielded a protein stability index of 2.6. Variant MTKAQESMTLEDVAVDFTWEEWQF [L8M] has a protein stability index of 3.62. In the case of MTKAQESNTLEDVAVDFTWEEWQF [L8N], the protein stability index is reported as 4.42. In the case of MTKAQESCTLEDVAVDFTWEEWQF [L8C], the protein stability index is reported as 3.42. In the case of MTKAQESVTLEDVAVDFTWEEWQF [L8V], the protein stability index is reported as 3.59. Variant MTKAQESSTLEDVAVDFTWEEWQF [L8S] has a protein stability index of 4.47. In the case of MTKAQESWTLEDVAVDFTWEEWQF [L8W], the protein stability index is reported as 2.23. Variant MTKAQESDTLEDVAVDFTWEEWQF [L8D] has a protein stability index of 4.41. Variant MTKAQESKTLEDVAVDFTWEEWQF [L8K] has a protein stability index of 4.31. Variant MTKAQESRTLEDVAVDFTWEEWQF [L8R] has a protein stability index of 3.79. MTKAQESITLEDVAVDFTWEEWQF [L8I] gave a protein stability index of 3.05. For MTKAQESFTLEDVAVDFTWEEWQF [L8F], the protein stability index was 2.5. In the case of MTKAQESATLEDVAVDFTWEEWQF [L8A], the protein stability index is reported as 4.22. Work on MTKAQESTTLEDVAVDFTWEEWQF [L8T] yielded a protein stability index of 3.93. With MTKAQESETLEDVAVDFTWEEWQF [L8E] the protein stability index was 4.39. MTKAQESPTLEDVAVDFTWEEWQF [L8P] gave a protein stability index of 3.58. With MTKAQESGTLEDVAVDFTWEEWQF [L8G] the protein stability index was 4.11. With MTKAQESHTLEDVAVDFTWEEWQF [L8H] the protein stability index was 4.05. MTKAQESYTLEDVAVDFTWEEWQF [L8Y] showed a protein stability index of 2.7. MTKAQESLHLEDVAVDFTWEEWQF [T9H] gave a protein stability index of 3.81. With MTKAQESLILEDVAVDFTWEEWQF [T9I] the protein stability index was 2.71. With MTKAQESLNLEDVAVDFTWEEWQF [T9N] the protein stability index was 4.28. MTKAQESLALEDVAVDFTWEEWQF [T9A] gave a protein stability index of 3.37. MTKAQESLMLEDVAVDFTWEEWQF [T9M] gave a protein stability index of 3.16. Variant MTKAQESLFLEDVAVDFTWEEWQF [T9F] has a protein stability index of 3.35. Work on MTKAQESLKLEDVAVDFTWEEWQF [T9K] yielded a protein stability index of 3.38. With MTKAQESLGLEDVAVDFTWEEWQF [T9G] the protein stability index was 3.49. With MTKAQESLELEDVAVDFTWEEWQF [T9E] the protein stability index was 3.94. With MTKAQESLCLEDVAVDFTWEEWQF [T9C] the protein stability index was 3.52. Work on MTKAQESLLLEDVAVDFTWEEWQF [T9L] yielded a protein stability index of 2.54. For MTKAQESLPLEDVAVDFTWEEWQF [T9P], the protein stability index was 4.17. Variant MTKAQESLDLEDVAVDFTWEEWQF [T9D] has a protein stability index of 3.71. With MHKAQESLTLEDVAVDFTWEEWQF [T2H] the protein stability index was 2.88. MFKAQESLTLEDVAVDFTWEEWQF [T2F] showed a protein stability index of 2.66. In the case of MNKAQESLTLEDVAVDFTWEEWQF [T2N], the protein stability index is reported as 3.62. Variant MGKAQESLTLEDVAVDFTWEEWQF [T2G] has a protein stability index of 3.25. Variant MCKAQESLTLEDVAVDFTWEEWQF [T2C] has a protein stability index of 2.57. MVKAQESLTLEDVAVDFTWEEWQF [T2V] showed a protein stability index of 2.64. Work on MLKAQESLTLEDVAVDFTWEEWQF [T2L] yielded a protein stability index of 3.97. MPKAQESLTLEDVAVDFTWEEWQF [T2P] gave a protein stability index of 3.66. Variant MAKAQESLTLEDVAVDFTWEEWQF [T2A] has a protein stability index of 3.09. Variant MSKAQESLTLEDVAVDFTWEEWQF [T2S] has a protein stability index of 2.55. Variant MRKAQESLTLEDVAVDFTWEEWQF [T2R] has a protein stability index of 2.72. Work on MKKAQESLTLEDVAVDFTWEEWQF [T2K] yielded a protein stability index of 3.77. In the case of MEKAQESLTLEDVAVDFTWEEWQF [T2E], the protein stability index is reported as 3.94. MDKAQESLTLEDVAVDFTWEEWQF [T2D] showed a protein stability index of 3.5. Work on MIKAQESLTLEDVAVDFTWEEWQF [T2I] yielded a protein stability index of 2.75. In the case of MYKAQESLTLEDVAVDFTWEEWQF [T2Y], the protein stability index is reported as 2.33. For MWKAQESLTLEDVAVDFTWEEWQF [T2W], the protein stability index was 2.36. In the case of MTSAQESLTLEDVAVDFTWEEWQF [K3S], the protein stability index is reported as 3.85. Variant MTVAQESLTLEDVAVDFTWEEWQF [K3V] has a protein stability index of 3.23. With MTRAQESLTLEDVAVDFTWEEWQF [K3R] the protein stability index was 3.12. With MTDAQESLTLEDVAVDFTWEEWQF [K3D] the protein stability index was 3.63. In the case of MTYAQESLTLEDVAVDFTWEEWQF [K3Y], the protein stability index is reported as 2.64. With MTFAQESLTLEDVAVDFTWEEWQF [K3F] the protein stability index was 2.17. In the case of MTHAQESLTLEDVAVDFTWEEWQF [K3H], the protein stability index is reported as 3.7. Variant MTWAQESLTLEDVAVDFTWEEWQF [K3W] has a protein stability index of 2.53. For MTQAQESLTLEDVAVDFTWEEWQF [K3Q], the protein stability index was 2.98. With MTMAQESLTLEDVAVDFTWEEWQF [K3M] the protein stability index was 2.64. Variant MTPAQESLTLEDVAVDFTWEEWQF [K3P] has a protein stability index of 3.33. For MTGAQESLTLEDVAVDFTWEEWQF [K3G], the protein stability index was 3.36. In the case of MTIAQESLTLEDVAVDFTWEEWQF [K3I], the protein stability index is reported as 2.74. MTNAQESLTLEDVAVDFTWEEWQF [K3N] showed a protein stability index of 3.65. In the case of MTEAQESLTLEDVAVDFTWEEWQF [K3E], the protein stability index is reported as 4.29. MTCAQESLTLEDVAVDFTWEEWQF [K3C] showed a protein stability index of 2.23. In the case of MTTAQESLTLEDVAVDFTWEEWQF [K3T], the protein stability index is reported as 3.33. In the case of MTLAQESLTLEDVAVDFTWEEWQF [K3L], the protein stability index is reported as 2.84. For WTKAQESLTLEDVAVDFTWEEWQF [M1W], the protein stability index was 2.07. For LTKAQESLTLEDVAVDFTWEEWQF [M1L], the protein stability index was 2.94. Variant STKAQESLTLEDVAVDFTWEEWQF [M1S] has a protein stability index of 3.91. PTKAQESLTLEDVAVDFTWEEWQF [M1P] gave a protein stability index of 2.81. Work on NTKAQESLTLEDVAVDFTWEEWQF [M1N] yielded a protein stability index of 4.67. Variant QTKAQESLTLEDVAVDFTWEEWQF [M1Q] has a protein stability index of 3.89. For DTKAQESLTLEDVAVDFTWEEWQF [M1D], the protein stability index was 3.95. Work on YTKAQESLTLEDVAVDFTWEEWQF [M1Y] yielded a protein stability index of 2.96. ITKAQESLTLEDVAVDFTWEEWQF [M1I] showed a protein stability index of 2.83.
